For 3 molecules, Kd results are on record in paper PMC10140023 (2023).

One experiment deals with T1, GFP-POLD1 (human, UniProt P28340 1-1107).
T1 chain: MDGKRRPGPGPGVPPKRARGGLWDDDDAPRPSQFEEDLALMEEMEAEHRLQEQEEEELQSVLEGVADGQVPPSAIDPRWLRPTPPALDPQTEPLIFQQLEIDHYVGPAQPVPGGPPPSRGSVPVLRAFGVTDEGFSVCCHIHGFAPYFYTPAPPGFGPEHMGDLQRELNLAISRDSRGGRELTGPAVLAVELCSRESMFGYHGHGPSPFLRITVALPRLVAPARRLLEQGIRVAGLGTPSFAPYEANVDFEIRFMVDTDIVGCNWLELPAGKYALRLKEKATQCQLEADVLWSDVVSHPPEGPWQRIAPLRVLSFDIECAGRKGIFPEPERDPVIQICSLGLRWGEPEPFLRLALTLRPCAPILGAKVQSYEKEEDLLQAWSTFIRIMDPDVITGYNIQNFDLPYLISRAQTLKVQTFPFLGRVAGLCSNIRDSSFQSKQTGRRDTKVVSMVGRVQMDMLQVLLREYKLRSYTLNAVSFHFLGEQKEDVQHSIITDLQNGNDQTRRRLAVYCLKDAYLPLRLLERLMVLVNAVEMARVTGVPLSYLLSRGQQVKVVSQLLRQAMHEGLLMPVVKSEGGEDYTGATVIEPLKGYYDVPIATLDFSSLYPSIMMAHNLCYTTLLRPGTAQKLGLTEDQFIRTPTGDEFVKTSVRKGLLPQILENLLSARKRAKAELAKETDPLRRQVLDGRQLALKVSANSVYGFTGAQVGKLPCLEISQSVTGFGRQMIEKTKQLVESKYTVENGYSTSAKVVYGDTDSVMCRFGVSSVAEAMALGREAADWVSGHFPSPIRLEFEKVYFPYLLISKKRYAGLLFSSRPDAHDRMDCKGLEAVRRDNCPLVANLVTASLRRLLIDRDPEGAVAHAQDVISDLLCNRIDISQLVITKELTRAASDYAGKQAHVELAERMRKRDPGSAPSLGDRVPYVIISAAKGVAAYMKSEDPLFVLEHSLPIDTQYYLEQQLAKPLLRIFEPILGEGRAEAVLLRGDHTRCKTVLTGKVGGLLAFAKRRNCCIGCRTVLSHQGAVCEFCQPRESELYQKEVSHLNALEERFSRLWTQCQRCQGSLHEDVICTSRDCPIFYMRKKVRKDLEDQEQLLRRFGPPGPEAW
The experiment can be described thus: MST.

Another experiment has as its target GFP-FBXW7α (human, UniProt Q969H0 1-707). Briefly: MST.

Chain of GFP-FBXW7α (Q969H0 whole entry): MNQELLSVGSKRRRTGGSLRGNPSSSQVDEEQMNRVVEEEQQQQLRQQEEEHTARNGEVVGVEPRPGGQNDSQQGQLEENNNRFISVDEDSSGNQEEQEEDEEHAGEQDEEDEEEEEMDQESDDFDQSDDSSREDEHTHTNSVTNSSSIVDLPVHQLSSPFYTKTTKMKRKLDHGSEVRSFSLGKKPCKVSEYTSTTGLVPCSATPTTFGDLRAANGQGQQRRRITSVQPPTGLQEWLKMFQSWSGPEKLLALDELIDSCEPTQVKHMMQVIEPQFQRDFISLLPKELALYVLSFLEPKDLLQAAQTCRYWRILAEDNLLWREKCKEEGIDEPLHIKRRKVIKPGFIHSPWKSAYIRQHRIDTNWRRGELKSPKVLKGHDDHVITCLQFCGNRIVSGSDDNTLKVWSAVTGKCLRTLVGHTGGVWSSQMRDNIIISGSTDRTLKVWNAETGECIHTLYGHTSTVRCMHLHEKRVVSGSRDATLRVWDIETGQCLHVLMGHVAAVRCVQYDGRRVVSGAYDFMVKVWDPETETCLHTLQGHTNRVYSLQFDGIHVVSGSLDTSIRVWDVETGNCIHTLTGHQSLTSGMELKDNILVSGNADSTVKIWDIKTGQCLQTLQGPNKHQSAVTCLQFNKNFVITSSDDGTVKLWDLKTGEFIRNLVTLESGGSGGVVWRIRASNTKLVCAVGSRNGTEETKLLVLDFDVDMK

B1: MB1-T58D peptide (peptide)
peptide: APSEDIWKKFELLPDPPLSP
Consider B1, for which the values for the Kd with GFP-POLD1 and with GFP-FBXW7α were 30.8 µM and 110 µM, respectively.

B2: MYC-MB1 (WT) peptide (peptide)
peptide: APSEDIWKKFELLPTPPLSP
On to B2, for which the Kd with GFP-POLD1 amounted to 34.5 µM; with GFP-FBXW7α, 700 µM.

B3: MB1-T58A peptide (peptide)
peptide: APSEDIWKKFELLPAPPLSP
Turning to B3, the Kd with GFP-POLD1 came to 49.9 µM; with GFP-FBXW7α it was 2160 µM.

For orientation: Kd means a measure of binding affinity in units of concentration. A high value points to a looser complex.
